Paper PMC3811995, “Zebavidin - An Avidin-Like Protein from Zebrafish” (PLoS ONE, 2013)
Several values for one entry are separate records, joined by “and”; a condition that tells them apart may be missing. Equal values may be shown once.

Key:
[1] = molecular target: zebavidin (recombinant core, expressed in E. coli) (zebrafish (Danio rerio)); experiment: SEC; Superdex200 10/300GL, 4 °C, 50 mM sodium phosphate, 2 mM EDTA, pH 7 with 0, 100 or 650 mM NaCl, with and without biotin
[2] = molecular target: zebavidin (recombinant core, expressed in E. coli) (zebrafish (Danio rerio)); experiment: crystal structure; zebavidin in complex with biotin, 2.4 Å, space group P2(1)2(1)2, 16 monomers (four homotetramers) in the asymmetric unit
[3] = molecular target: zebavidin (recombinant core, expressed in E. coli) (zebrafish (Danio rerio)); experiment: native MS; ESI FT-ICR, 10 µM zebavidin in 500 mM ammonium acetate, in the absence and presence of 30 µM biotin
[4] = molecular target: zebavidin (recombinant core, expressed in E. coli) (zebrafish (Danio rerio)); experiment: native MS; ESI FT-ICR, 10 µM zebavidin in 10 mM ammonium acetate, pH 7, with 30 µM biotin (3-fold molar excess)
[5] = molecular target: zebavidin (recombinant core, expressed in E. coli) (zebrafish (Danio rerio)); experiment: native MS; ESI FT-ICR, 10 µM zebavidin (monomer) in 10 mM ammonium acetate, pH 7, without biotin
zebavidin [6] = molecular target: T1, zebavidin (Danio rerio, UniProt E7F650); experiment: ITC ([…] °C); assay type: binding; set-up: gene avd; first 30 amino acids of the ORF replaced with OmpA signal peptide from Bordetella avium (secreted core)
T1 sequence (E7F650 31-154): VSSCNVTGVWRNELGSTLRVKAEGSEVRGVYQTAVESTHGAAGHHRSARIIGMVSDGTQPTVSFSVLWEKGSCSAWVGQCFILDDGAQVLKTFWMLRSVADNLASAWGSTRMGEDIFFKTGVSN

zebavidin [7] = molecular target: T1, zebavidin; experiment: crystal structure at […] Å; direct and competitive ITC ([…] °C); [3H]biotin dissociation; native MS; DSC; assay type: binding; set-up: gene avd; first 30 amino acids of the ORF replaced with OmpA signal peptide from Bordetella avium (secreted core); homotetramer
zebavidin [8] = molecular target: T1, zebavidin; experiment: fluorescence quenching titration ([…] °C); assay type: binding; set-up: gene avd; first 30 amino acids of the ORF replaced with OmpA signal peptide from Bordetella avium (secreted core)

Work on “zebavidin (recombinant core, expressed in E. coli) (natural protein)” yielded a stoichiometry N [1] of 4, a stoichiometry N [2] of 4 and a stoichiometry N [3] of 4. For the same compound, the stoichiometry N [4] was 4 and the stoichiometry N [5] was 2 and 4.
In the case of `C[C@@H]1NC(=O)N[C@@H]1CCCCCC(=O)O` [desthiobiotin], the Kd (zebavidin [6]) is reported as 660/700 x10^-9 M.
For `O=C(O)CCCC[C@@H]1SC[C@@H]2NC(=O)N[C@@H]21` [BTN, biotin], the Kd (zebavidin [7]) was 4.8/4.4 x10^-9 M.
Compound ArcDia BF560 has a Kd (zebavidin [8]) of 140 nM.
